Measurements published in paper PMC11289891, “Selection and characterization of a peptide-based complement modulator targeting C1 of the innate immune system†” (RSC Chemical Biology, 2024).
Positions of bridges follow the written chain, without caps; N, C: chain ends.

Molecular target: T1, C1q (full-length; ligand binding and scaffolding part of the C1 complex) (human (endogenous in human serum), UniProt P02745 23-245; P02746 28-253; P02747 29-245)
T1 construct: complement C1q subunit A, human; complement C1q subunit B, human; complement C1q subunit C, human; In serum and in the bought C1 protein C1q stands in the C1 complex with the proteases C1r and C1s (C1r2s2); in the ELISAs it was detected with anti-C1q; also called gC1q (globular head domain of full-length C1q); source: endogenous, normal human serum (Complement Technology); purified C1 protein …
T1 sequence (P02745 23-245, chain 1 of 3): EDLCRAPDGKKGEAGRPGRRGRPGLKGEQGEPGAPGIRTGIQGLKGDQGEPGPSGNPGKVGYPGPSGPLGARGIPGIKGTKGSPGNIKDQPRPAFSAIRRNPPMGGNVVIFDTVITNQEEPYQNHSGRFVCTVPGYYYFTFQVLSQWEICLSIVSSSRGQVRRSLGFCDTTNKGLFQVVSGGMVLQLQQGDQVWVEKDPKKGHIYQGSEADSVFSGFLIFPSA
T1 sequence (P02746 28-253, chain 2 of 3): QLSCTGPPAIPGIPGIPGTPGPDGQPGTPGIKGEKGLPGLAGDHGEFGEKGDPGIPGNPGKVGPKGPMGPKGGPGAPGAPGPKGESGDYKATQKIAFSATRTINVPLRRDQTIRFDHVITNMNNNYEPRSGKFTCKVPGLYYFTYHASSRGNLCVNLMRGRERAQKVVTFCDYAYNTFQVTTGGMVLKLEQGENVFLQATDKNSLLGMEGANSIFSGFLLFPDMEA
T1 sequence (P02747 29-245, chain 3 of 3): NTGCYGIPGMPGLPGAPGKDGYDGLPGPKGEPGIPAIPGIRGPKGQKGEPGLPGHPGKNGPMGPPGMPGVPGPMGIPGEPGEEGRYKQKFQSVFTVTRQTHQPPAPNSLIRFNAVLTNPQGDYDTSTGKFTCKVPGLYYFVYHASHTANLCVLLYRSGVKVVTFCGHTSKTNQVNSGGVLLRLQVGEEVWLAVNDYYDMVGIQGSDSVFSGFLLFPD
Assay: ELISA; titration of purified cL3-Bt bound to streptavidin-coated plates, 1% normal human serum in RPMI, 37 °C 1 hour, C1q detected with rabbit anti-C1q
Details: one partner purified

## {CH2CO}-YTVTFYPDPFTLQFIACGS-{K(biotin)} (thioether N-17) [cyclic-L3, biotinylated (cL3-Bt)]
  EC50: ~6 µM
